{
  "source": "paper PMC10679996",
  "biological_target": "HSC70 (UniProt P11142)",
  "test": "anti-FLAG co-IP, Western blot",
  "settings": "reference: wild type; sites T290",
  "data": [
    {"substance": "PD-L1 (from UniProt Q9NZQ7) T290A", "values": [
      {"measurement": "binding against the reference", "result": "weaker"}
    ]}
  ]
}
